{
  "source": "the nanobody polyreactivity screen of Harvey et al. (2022)",
  "data": [
    {"assay": "yeast display, Sf9 membrane polyspecificity reagent, FACS + sequencing; frameworks hold sequencing errors", "procedure,_shortened": "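Nanobodies from a synthetic yeast display library (Saccharomyces cerevisiae BJ5465), induced 36–48 hours with galactose, were stained 1 hour at 4 °C with 10% biotinylated, detergent-solubilized Sf9 membrane reagent, enriched on streptavidin microbeads, then FACS-sorted. Anti-HA (expression) and streptavidin (reagent binding) fluorescence set low and high (top ~1%) gates. Polyreactivity labels come from the gate of origin. Genes were colony-PCR amplified, MiSeq 2 × 250 sequenced and filtered by CDR length.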", "values": [
      {"sequence": "QVQLVESGGGLVQAGGSLRLSCAASGSIFLWNAMGWYRQAPGKERELVAAISSSGGSTYYADSVKGRFTISRDNAKNTVYLQMNSLKPEDTAVYYCAAVSRSYYNSYNYWGQGTQVTVSS", "polyreactivity (PSR sort gate)": "high polyreactivity"},
      {"sequence": "QVQLVESGGGLVQAGGSLRLSCAASGSIFLWYAMGWYRQAPGKERELVAAIDWSGGSTYYADSVKGRFTISRDNAKNTVYLQMNSLKPEDTAGYDCAAEWGNWYWWDYGYDYYYWGQGTQVTVSS", "polyreactivity (PSR sort gate)": "high polyreactivity"},
      {"sequence": "QVQLVESGGGLVQAGGSLRLSCAASGSIFLWYTMGWYRQAPGKERELVAAISRTGGSTYYADSVKGRFTISRDNAKNTVYLQMNSLKPEETAVYYCAASFRPRSSRDYYYGYGYWGQGTQVTVSS", "polyreactivity (PSR sort gate)": "high polyreactivity"},
      {"sequence": "QVQLVESGGGLVQAGGSLRLSCAASGSIFLYNAMGWYIQAPGKERELVAAISRSSTSTYYADSVKGRFTISRDNAKNTVYLQMNSLKPEDTAVYYCAARGRVTYWGQGTQVTVSS", "polyreactivity (PSR sort gate)": "high polyreactivity"},
      {"sequence": "QVQLVESGGGLVQAGGSLRLSCAASGSIFLYNDMGWYRQAPGKERELVAAITSTGNTNYADSVKGRFTISRDNAKNTVYLQMNSLNRKIPRSITALNVSCTSVVVGYDYWGQGTQVTVSS", "polyreactivity (PSR sort gate)": "low polyreactivity"},
      {"sequence": "QVQLVESGGGLVQAGGSLRLSCAASGSIFLYNTMGWYRQAPGKERELVAAISFSGVTTYYADSVKGRFTISRDNAKNTVYLQMNSLKPEDTAVYYCNKYLWKFTNSPLGDYYWGQGTQVTVSS", "polyreactivity (PSR sort gate)": "high polyreactivity"},
      {"sequence": "QVQLVESGGGLVQAGGSLRLSCAASGSIFLYNTMGWYRQAPGKERELVAAITSGGNTNYADSVKGRFTISRDNAKNTVYLQMNSLKPEDTAVYYCNVDLKAWLPDGGSVDYWGQGTQVTVSS", "polyreactivity (PSR sort gate)": "low polyreactivity"},
      {"sequence": "QVQLVESGGGLVQAGGSLRLSCAASGSIFLYNTMGWYRQAPGKERELVAAITYSGGSTYYADSVKGRFTISRDYAKNTVYLQMNSLKPEDTAVDYCNARHYSAYYSWGQGTQVTVSS", "polyreactivity (PSR sort gate)": "high polyreactivity"},
      {"sequence": "QVQLVESGGGLVQAGGSLRLSCAASGSIFLYYAMGWYRQAPGKERELVAAISGRAGSTYYADSVKGRFTISRDNAKNTVYLQMNSLKPEDTSVYYCAAGYWHGYPGFKYYWGQGTQVTVSS", "polyreactivity (PSR sort gate)": "low polyreactivity"},
      {"sequence": "QVQLVESGGGLVQAGGSLRLSCAASGSIFLYYVMGWYRQAPGKERELVAAITWDGGSTYYADSVKGRFTISRDNAKNTVYLQMNSLKPEDTAVYYCNADTIVAWFDIFEEMDSWGQGTQVTVSS", "polyreactivity (PSR sort gate)": "low polyreactivity"},
      {"sequence": "QVQLVESGGGLVQAGGSLRLSCAASGSIFNANAMGWYRPAPGKERELVAGIRSGSSTNYADSVKGRFTISRDNAKNTVYLQMNSLKPEDTAVYYCATEGYWVYGFDDEYWGQGTQVTVSS", "polyreactivity (PSR sort gate)": "low polyreactivity"},
      {"sequence": "QVQLVESGGGLVQAGGSLRLSCAASGSIFNANAMGWYRQAPAKERELVAAITPSDGDTYYADSVKGRFTISRDNAKNTVYLQMNSLKPEDTAVYYCAAEDDPGEYEYWGQGTQVTVSS", "polyreactivity (PSR sort gate)": "low polyreactivity"},
      {"sequence": "QVQLVESGGGLVQAGGSLRLSCAASGSIFNANTMGWYRQAPGKERELVAVITSGGSTYYADSVKGRFTISRDNAKNTVYLQMNSLKPEDTAVYYCAKDPGPYDYDYWGQGTQVTVSS", "polyreactivity (PSR sort gate)": "low polyreactivity"},
      {"sequence": "QVQLVESGGGLVQAGGSLRLSCAASGSIFNDNVMGWYRQAPGKERELVAGISRSGTRTYYADSVKGRFTISRDNAKNTVYLQMNSLKPEDTAVYYCAAAYGQARRYNGSQYGSWGQGTQVTVSS", "polyreactivity (PSR sort gate)": "high polyreactivity"},
      {"sequence": "QVQLVESGGGLVQAGGSLRLSCAASGSIFNGYALGWYRQAPGKERELVAAISSGGCTNYADSVKGSFTISRDNAKNTVYLQMNSLKPEDTAVYYCDKDYGYYWPWHYIASYEYDYWGQGTQVTVSS", "polyreactivity (PSR sort gate)": "low polyreactivity"},
      {"sequence": "QVQLVESGGGLVQAGGSLRLSCAASGSIFNGYVMGLYRQAPGKERELVAAISSGGRTYYADSVKGRFTISRDNAKNTVYLQMNSLKPEDTAVYYCAADIWYFDYDYWGQGTQVTVSS", "polyreactivity (PSR sort gate)": "high polyreactivity"},
      {"sequence": "QVQLVESGGGLVQAGGSLRLSCAASGSIFNGYVMGWYTQAPGKERELVAANSRSGGRTYYADSVKGRFTISRDNAKNTVYLQMNSLKPEDTAVYYCAARNYLYAIMGKWLDYNYWGQGTQVTVSS", "polyreactivity (PSR sort gate)": "high polyreactivity"},
      {"sequence": "QVQLVESGGGLVQAGGSLRLSCAASGSIFNINAMGWYRQAPGKERELVATITSGGTASYADSVKGRFTISRDNAKNTVYLQMNSLKPEDTAVYDCNAEMYPIVKAGRQHPRRYDYWGQGTQVTVSS", "polyreactivity (PSR sort gate)": "low polyreactivity"},
      {"sequence": "QVQLVESGGGLVQAGGSLRLSCAASGSIFNIYAMGWDRQAPGKERELVAAIRWTGGSTYYADSVKGRFTISRDTAKNTVDLQMTSLKPEATAVYYCAARTSRGGHYYWGPGTQVTVSS", "polyreactivity (PSR sort gate)": "high polyreactivity"},
      {"sequence": "QVQLVESGGGLVQAGGSLRLSCAASGSIFNIYAMGWYRQAPGKERELVATITGIADSTYYADSVKGRFTISRDNAKNTVYLQMNSLKPEDTAVYFCAAKYGSRYTTGQTRRDYYSWGQGTQVTVSS", "polyreactivity (PSR sort gate)": "low polyreactivity"},
      {"sequence": "QVQLVESGGGLVQAGGSLRLSCAASGSIFNIYAMGWYRQAPGKERELVATITGIADSTYYADSVKGRFTISRDNAKNTVYLQMNSLKPEDTAVYYCNADPSGVFFYSLEFDYWGQGTQVTVSS", "polyreactivity (PSR sort gate)": "low polyreactivity"},
      {"sequence": "QVQLVESGGGLVQAGGSLRLSCAASGSIFNKNVMGWYRQAPGKERELVAAITSGGGSTYYADSVKGRFTISRDNAKNTVYLQMNSLKPEDTAVYYCAAGRGLYEYNYWGQGTQVTVSS", "polyreactivity (PSR sort gate)": "high polyreactivity"},
      {"sequence": "QVQLVESGGGLVQAGGSLRLSCAASGSIFNLYTMGWYRQAPGKEREFVSAISSSGTSTYYADSVKGRFTISRDNAKNTVYLQMNSLKPEDTAVYYCAADWTGGFYTWYVIPYDYWGQGTQVTVSS", "polyreactivity (PSR sort gate)": "low polyreactivity"},
      {"sequence": "QVQLVESGGGLVQAGGSLRLSCAASGSIFNLYTMGWYRQAPGKERELVAVITGGGSTYYADSVKGRFTISRDNAKNTVYLQMNSLKPDDTAVYYCAAKGPYYKSSRTGDYWGQGTQVTVSS", "polyreactivity (PSR sort gate)": "low polyreactivity"},
      {"sequence": "QVQLVESGGGLVQAGGSLRLSCAASGSIFNPYAMGWYRQAPGKERELVAVIRSRGDRTYYADSVKGRFTISRDYAKNTVYLQMNSLKPEDTAVYYCAVRAQESLWKQYYYWGQGTQVTVSS", "polyreactivity (PSR sort gate)": "high polyreactivity"},
      {"sequence": "QVQLVESGGGLVQAGGSLRLSCAASGSIFNRNAMGWYRQAPGKERELVAAINYSGGSTYYADSVKGRFTISRDNAKNTVYLQMNSLKPEDTAVYYCAARPVALRKYDYWGQGTQVTVSS", "polyreactivity (PSR sort gate)": "low polyreactivity"},
      {"sequence": "QVQLVESGGGLVQAGGSLRLSCAASGSIFNRNAMGWYRQARGKERELVAAITGSGGRTYYADSVKGRFTISRDNAKNTVYLQMNSLKPEDTAVYYCAARWGYYRYYIFDYWGQGTQVTVSS", "polyreactivity (PSR sort gate)": "high polyreactivity"},
      {"sequence": "QVQLVESGGGLVQAGGSLRLSCAASGSIFNRYAMGWYRKAPGKERELVAAMSSTGSTYYADSVKGRFTISRDNAKNTVYLQMNSLKPEDTAVYYCNADATPDWLRVDTYEYWGQGTQVTVSS", "polyreactivity (PSR sort gate)": "low polyreactivity"},
      {"sequence": "QVQLVESGGGLVQAGGSLRLSCAASGSIFNRYAMGWYRQAPGKERELVAAIRSGDNTNYADSVKGRFTISRDNAKNTVYLQMNSLKPEDTAVYYCNARYGGYRARYTYNYWGQGTQVTVSS", "polyreactivity (PSR sort gate)": "high polyreactivity"},
      {"sequence": "QVQLVESGGGLVQAGGSLRLSCAASGSIFNRYAMGWYRQAPGKERELVASISWRTASTYYADSVKGRFTISRDNAKNTVYLQMNSLKPEDTAVYYCAAKILGRPGYYYWGQGTQVTVSS", "polyreactivity (PSR sort gate)": "high polyreactivity"},
      {"sequence": "QVQLVESGGGLVQAGGSLRLSCAASGSIFNRYAMGWYRQAPGKERQFVAAITRRGGNTYYADSVKGRFTISRDNAKNTVYLQMNSLKREDTAVYYCAAPFYYPAGLLYYENNYWGQGTQVTVSS", "polyreactivity (PSR sort gate)": "high polyreactivity"},
      {"sequence": "QVQLVESGGGLVQAGGSLRLSCAASGSIFNRYTMGSYRQAPGKEREFVAAISSSGTSTYYADSVKGRFTISRDNAMNTVYLQMNSLKPEDTAVYYCAADYYRTPKSGSSGLDYWGQGTQVTVSS", "polyreactivity (PSR sort gate)": "low polyreactivity"},
      {"sequence": "QVQLVESGGGLVQAGGSLRLSCAASGSIFNSNAMGWYRPAPGKERELVAAITGSGGRTYYADSVKGRFTISRDNAKNTVYLKMNSLKPEDTAVYYCNVTRGTIGGYSYWGQGTQVTVSS", "polyreactivity (PSR sort gate)": "high polyreactivity"},
      {"sequence": "QVQLVESGGGLVQAGGSLRLSCAASGSIFNSNAMGWYRQAPGKERELVAVISWSDGSTRYADSVKGRFTISRDNVKNTVYLQMNSLKPEDTAVYYCAADYLDGIYEYDYWGQGTQVTVSS", "polyreactivity (PSR sort gate)": "low polyreactivity"},
      {"sequence": "QVQLVESGGGLVQAGGSLRLSCAASGSIFNSYAMGWYRQAPGKETELVAAITRSDGSTYYADSVKGRFTISRDKAKNTVYLQMNSLKPEDTAVYYCAKGVGGYIYSEYDYWGQGTQVTVSS", "polyreactivity (PSR sort gate)": "low polyreactivity"},
      {"sequence": "QVQLVESGGGLVQAGGSLRLSCAASGSIFNVNAMGWYRQAPGKERELVAAISSGGDTYYADSVKGRFTISRDNAKNTVYLQMNSLKPEDTAVYYCAKQSYTLYTLLYDYWGQGTQVTVSS", "polyreactivity (PSR sort gate)": "low polyreactivity"},
      {"sequence": "QVQLVESGGGLVQAGGSLRLSCAASGSIFNWYAMGWYRQAPGKERELVAAISSSGSTNYADSVKGRFTISRDNAKNTVYLQMNSLKPEDTAVYYCNADEYYLNNYNYGYWGQGTQVTVSS", "polyreactivity (PSR sort gate)": "low polyreactivity"},
      {"sequence": "QVQLVESGGGLVQAGGSLRLSCAASGSIFNYNAMGWYRHAPGKERELFAAITYHGGSTYYADSVKGRFTISRDNAKYTVYLQMNSLKPEDTAVYYCNALRGYRPGWFDYWGQGTQVTVSS", "polyreactivity (PSR sort gate)": "high polyreactivity"},
      {"sequence": "QVQLVESGGGLVQAGGSLRLSCAASGSIFNYNAMGWYRQAPGKERELVAAISSGGSTNYADSVKGRFTISRDNAKNTVYLQMNSLKPEDTAVYYCAKRWWVYYPRYDYWGQGTQVTVSS", "polyreactivity (PSR sort gate)": "high polyreactivity"},
      {"sequence": "QVQLVESGGGLVQAGGSLRLSCAASGSIFNYYAMGWYRQAPGKERELVAAISTSGGRTYYADSVKGRFTISRDNAKKTVYLQMNSLKPEDTAVYYCNAVSRTRAGAGDYWGQGTQVTVSS", "polyreactivity (PSR sort gate)": "high polyreactivity"},
      {"sequence": "QVQLVESGGGLVQAGGSLRLSCAASGSIFNYYAMGWYRQAPGKERELVAAITSADGRTFYADSVKGRFTISRDNANNTVYLQMNSLKPDDTAVYYCAAERTSRYSTYEYWGQGTQVTVSS", "polyreactivity (PSR sort gate)": "low polyreactivity"},
      {"sequence": "QVQLVESGGGLVQAGGSLRLSCAASGSIFNYYDMGWYRQAPGKEREFVARITIGGSSTNYADSVKGRFTISRDNAKNTVYLQMNSLKPEDTAVYYCAASQYGIFFSQMDYWGQGTQVTVSS", "polyreactivity (PSR sort gate)": "low polyreactivity"},
      {"sequence": "QVQLVESGGGLVQAGGSLRLSCAASGSIFNYYTMGWYRQAPGKERELVAAITWSGGRTYYADSVKGRFTISRDNAKNTVYLQMNSLKPEDTAVYYCNAVAYKPGGGDDFESWGQGTQLTVSS", "polyreactivity (PSR sort gate)": "high polyreactivity"}
    ]}
  ]
}
